Ends that are not written are not given here.
B3: Alexa Fluor 488-TPX2_((7–43)) peptide (peptide)
peptide: LSYSYDAPSDFINFSSLDDEGDTQNIDSWFEEKANLENLKGGGC(Alexa Fluor 488‑maleimide)QM
notes: residue before the TPX2 stretch in the printed peptide; TPX2, human, residues 7-43; C-terminal extension of the printed peptide with the cysteine that is labelled; As m10, labelled; the methods speak of 'free N-terminal cysteines' but the only cysteine of the printed peptide is near its C-terminus; also called Alexa Fluor 488-labeled TPX2 peptide; labeled wild-type TPX2 peptide; source: E. coli …

Assays:
Settings in all cases: both partners purified
[1] = target: B3; experiment: fluorescence polarisation; fluorescence anisotropy, direct titration of Aurora A wild type into 10 nM Alexa Fluor 488-TPX2 peptide, 25°C, HEPES pH 7.4, 0.1 M Mg(CH3COO)2, 100 mM NaCl, 1 mM ATP, 1 mM DTT, 0.01% P20; quadratic single-site equation
[2] = target: T1, Aurora A_(D274N) kinase domain (human, UniProt O14965 122-403, D274N); experiment: ITC; itc200, 25°C, 10 mM HEPES pH 7.4, 500 mM NaCl, 0.05% P20; 50 μM titrant into 5 μM Aurora A D274N, 100 μM CK2β peptide or RAD-CK2β into 10 μM CK2α; single-site model
T1 construct: Aurora A kinase, human, kinase domain residues 122-403, kinase dead D274N; theoretical mass 33.8 kDa; Cloned into pHAT5 in frame with a C-terminal 6xHis-tag; also called kinase dead human Aurora A D274N mutant; source: E. coli BL21(DE3), purified (HisTrap HP, Superdex 75 SEC); not shown: His6, C-terminal, kept
T1 sequence (looked up): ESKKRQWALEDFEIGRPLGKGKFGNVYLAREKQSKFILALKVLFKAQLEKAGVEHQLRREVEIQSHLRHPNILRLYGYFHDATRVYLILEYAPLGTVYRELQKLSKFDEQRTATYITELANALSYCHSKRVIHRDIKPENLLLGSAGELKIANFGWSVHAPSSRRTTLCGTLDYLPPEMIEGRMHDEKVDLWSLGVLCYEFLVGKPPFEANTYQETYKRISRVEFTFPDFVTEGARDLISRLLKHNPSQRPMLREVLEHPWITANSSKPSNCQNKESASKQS

[3] = target: T1, Aurora A_(D274N) kinase domain; experiment: SPR; Biacore T100, CM5, peptides or cRAD display proteins immobilised through their cysteine (240-400 RU), kinase as analyte 2.5 nM-2.5 μM, 25°C, 10 mM HEPES pH 7.4, 500 mM NaCl, 0.05% P20; 1:1 steady-state affinity model; CK2α data analysed at 200 s post-injection
[4] = target: T1, Aurora A_(D274N) kinase domain; experiment: fluorescence polarisation; fluorescence anisotropy, direct titration of kinase (CK2α 2 nM-2 μM; Aurora A D274N 2 nM-1.5 μM) into labelled peptide or display protein; 10 mM HEPES pH 7.4, 500 mM NaCl, 1 mM DTT, 0.05% P20; room temperature; 1:1 model

B1: Aurora A wild-type kinase domain (untagged) (domain or fragment)
chain: FEIGRPLGKGKFGNVYLAREKQSKFILALKVLFKAQLEKAGVEHQLRREVEIQSHLRHPNILRLYGYFHDATRVYLILEYAPLGTVYRELQKLSKFDEQRTATYITELANALSYCHSKRVIHRDIKPENLLLGSAGELKIADFGWSVHAPSSRRTTLCGTLDYLPPEMIEGRMHDEKVDLWSLGVLCYEFLVGKPPFEANTYQETYKRISRVEFTFPDFVTEGARDLISRLLKHNPSQRPMLREVLEHPWI
[1]
  Kd: 2.1 nM

B2: linear TPX2_((7–43)) peptide (peptide)
peptide: LSYSYDAPSDFINFSSLDDEGDTQNIDSWFEEKANLENLKGGGCQM
notes: residue before the TPX2 stretch in the printed peptide; TPX2, human, residues 7-43; C-terminal extension of the printed peptide with the cysteine handle; Used free in ITC and immobilised through the cysteine on CM5 in SPR; also called TPX2 peptide; TPX-2 peptide; source: E. coli BL21(DE3), KSI fusion (pET31b), inclusion bodies, Ni-NTA, CNBr cleavage, reverse-phase HPLC
[2]
  Kd: 115 nM
[3]
  Kd: 72 nM

## B3
[4]
  Kd: 74 nM
